Measured values as given in article PMC3820802, “Activin Signaling Targeted by Insulin/dFOXO Regulates Aging and Muscle Proteostasis in Drosophila”.

T1: Smox MH1 DNA-binding domain (UniProt O96660 1-140)
T1 sequence: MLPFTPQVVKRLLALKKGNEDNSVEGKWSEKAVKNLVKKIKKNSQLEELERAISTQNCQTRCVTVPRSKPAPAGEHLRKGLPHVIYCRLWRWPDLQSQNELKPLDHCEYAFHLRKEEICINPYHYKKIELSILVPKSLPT

B1: Atg8a probe (dsDNA)
DNA 1: CATATTAGACAGACACCATT
DNA 2: AATGGTGTCTGTCTAATATG
B2: SBE (vertebrate Smad binding element) (dsDNA)
DNA 1: GTATGTCTAGACTGAA
DNA 2: TTCAGTCTAGACATAC
B3: Atg8a-Mut2 (dsDNA)
DNA 1: CATATTAGCTACATACCATT
DNA 2: AATGGTATGTAGCTAATATG
B4: Atg8a-Mut3 (dsDNA)
DNA 1: CATATTAGATAGATACCATT
DNA 2: AATGGTATCTATCTAATATG

Experiments:
[1] = target: T1, Smox MH1 DNA-binding domain; assay: EMSA; blocked by unlabeled wild-type probe; 10 mM Tris-HCl pH 7.5, 150 mM KCl, 5 mM MgCl2, 10 ng/uL poly(dI-dC), ~50 ng probe, 20 ug protein in 10 uL, room temperature 20 min; 0.8% agarose, 0.5x TBE; conditions: protein: recombinant; tags: His6-HaloTag (pFN29K vector; purified with HaloTag kit, tag retention: called Halo-tagged in legend); (only one strand seen in the material)
[2] = target: T1, Smox MH1 DNA-binding domain; assay: EMSA; 10 mM Tris-HCl pH 7.5, 150 mM KCl, 5 mM MgCl2, 10 ng/uL poly(dI-dC), ~50 ng probe, 20 ug protein in 10 uL, room temperature 20 min; 0.8% agarose, 0.5x TBE; conditions: protein: recombinant; tags: His6-HaloTag (pFN29K vector; purified with HaloTag kit, tag retention: called Halo-tagged in legend); label: 3' biotin; (only one strand seen in the material)
[3] = target: T1, Smox MH1 DNA-binding domain; assay: competition; EMSA, cold competitor vs labeled N1; did not compete; 10 mM Tris-HCl pH 7.5, 150 mM KCl, 5 mM MgCl2, 10 ng/uL poly(dI-dC), ~50 ng probe, 20 ug protein in 10 uL, room temperature 20 min; 0.8% agarose, 0.5x TBE; conditions: protein: recombinant; tags: His6-HaloTag (pFN29K vector; purified with HaloTag kit, tag retention: called Halo-tagged in legend); (only one strand seen in the material)

Binder	binding result [3]	other results
B1	–	binding result [1]: binds
B2	–	binding result [2]: binds
B3	no binding	–
B4	no binding	–
